Data on 6 molecules can be found in US20150274828A1 (SHANGHAI SERUM BIOTECHNOLOGY, published 2015).

For assay [1], the target named is T1, EGFR-Fc fusion protein (recombinant EGFR extracellular region-Fc) (human, UniProt P00533 25-645).
T1 construct: extracellular domain; not shown: Fc part supplied by vector pABG1
The assay is described as follows: phage ELISA, EGFR-Fc coated, anti-M13-HRP. For orientation: ELISA stands for enzyme-linked immunosorbent assay.

For assay [2], the target named is T2, EGFR on A431 cell surface (human, UniProt P00533 25-1210).
T2 construct: whole, on cells; also called natural EGFR on surface of A431 cell
In words: flow cytometry on A431 cells, antibody 0.03 µg/ml, FITC anti-human IgG. For orientation: Flow cytometry measures light scatter and fluorescence of single cells or particles in a stream.

Assay [3] addresses T3, Recombinant human epidermal growth factor (EGF) (human, UniProt P01133 971-1023).
T3 construct: Coated on the ELISA plate; also called EGR
The assay is described as follows: ELISA, EGF coated at 1 µg/well, antibody without EGFR-Fc, HRP goat anti-human IgG.

The target in assay [4] is T1, EGFR-Fc fusion protein (recombinant …). In words: BLI Fortebio, method of Example 5 (biotinylated EGFR-Fc on streptavidin sensor). (BLI is a label-free optical method that tracks binding on a fibre tip over time.)
The target is the same in assay [5]. In words: BLI ForteBio QKe, biotinylated EGFR-Fc on streptavidin sensor, antibody 20 nM; fold reduction of affinity, parent Ame55 = 1.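 Also: parent antibody affinity set as 1, with values giving the fold drop in affinity of each mutant antibody relative to that parent.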
Assay [6] shares this target. The assay is described as follows: BLI ForteBio QKe, biotinylated EGFR-Fc on streptavidin sensor.

Changes are numbered by the printed parent chain.

T3 sequence (P01133 971-1023 limits assumed): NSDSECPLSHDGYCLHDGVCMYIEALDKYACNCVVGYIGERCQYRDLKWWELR

B1: Ame55 phage single chain antibody (scFv)
scFv: SYELTQPPSVSVAPGQTARITCSGDALGDKYASWYQQKPGQAPVLVIYEDSKRPSGIPERFSGSNSGNTATLTISGTQAEDEADYYCSVWDGDWGMPVFGGGTKLTVLGSGGSTITSYNVYYTKLSSSGSEVQLVQSGAEVKKPGESLKISCKGSGYSFTSYWIGWVRQMPGKGLEWMGIIYPGDSDTRYSPSFQGQVTISADKSISTAYLQWSSLKASDTAMYYCARGIIYPSNVAVWGQGTLVTVSS
notes: the phage coat fusion is not described; also called Ame55 phage antibody; Ame55 single chain antibody
For the molecule B1, in assay [1], the binding result is recorded as “binds”.

B2: Ame55 intact antibody (IgG1) (antibody, V domains shown)
VH: EVQLVQSGAEVKKPGESLKISCKGSGYSFTSYWIGWVRQMPGKGLEWMGIIYPGDSDTRYSPSFQGQVTISADKSISTAYLQWSSLKASDTAMYYCARGIIYPSNVAVWGQGTLVTVSS
VL: SYELTQPPSVSVAPGQTARITCSGDALGDKYASWYQQKPGQAPVLVIYEDSKRPSGIPERFSGSNSGNTATLTISGTQAEDEADYYCSVWDGDWGMPVFGGGTKLTVLG
notes: Variable regions cloned into vectors pABL and pABG1 and expressed in HEK293T as intact IgG1 with lambda light chain; also called Amet55; parent antibody Ame55
Consider B2, for which the binding result in assay [2] is recorded as “binds”; in assay [3], “no binding”.

B3: Ame-9B (antibody, V domains shown)
VH: EVQLVESGGGLVQPGGSLRLSCAASGFTFSSYAMSWVRQAPGKGLEWVSAITGTGGETYYADSVKGRFTISRDNSKNTLYLQMNSLRAEDTAVYYCARGWSWTGVDPWGQGTLVTVSS
VL: B2 VL
notes: Expressed in HEK293, purified on Protein A; also called mutant Ame-9B
B3: in assay [4], the “fold decrease of affinity (against Ame55)” value was around 6 times.

B4: Ame55 mutant, light chain 89S(A1) (antibody, V domains shown)
VH: B2 VH
VL: B2 VL with V89S
notes: Mutant of Ame55
Turning to B4, the Affinity change in assay [5] was 0.5 fold. In assay [6], the “fold increase of affinity against parent antibody Ame55” value is 4 times.

B5: AmeA2C3 (the mutated light chain has Lys at site 26 and Ala at site 89) (antibody, V domains shown)
VH: B2 VH
VL: B2 VL with A26K, V89A
notes: Mutant of Ame55; also called 26K + 89A
For the molecule B5, the Affinity change in assay [5] was below 0.1 fold.

B6: AmeA2C1 (the mutated light chain has Gly at site 26 and Ala at site 89) (antibody, V domains shown)
VH: B2 VH
VL: B2 VL with A26G, V89A
notes: Mutant of Ame55; also called 26G + 89A
On to B6, for which, in assay [5], the Affinity change was below 0.2 fold.
